Experimental data as given in article PMC7892824 (2021).
Bridges are numbered along the chain shown (N, C = ends). [ ]: non-standard residue; d: D form. The star is where a group is joined. FITC = O=C1OC2(c3ccc(O)cc3Oc3cc(O)ccc32)c2ccc(NC(=S)*)cc21; S5 = C=CCCC[C@](C)(N)C(=O)O; Ahx = NCCCCCC(=O)O

How the values were obtained:
[1] = biological target: T1, Human full-length (1–192) wild-type BAX (human, UniProt Q07812 1-192); assay: FP; 0 uM EO
[2] = biological target: T1, Human full-length (1–192) wild-type BAX; assay: FP; 1 uM EO (eltrombopag)
[3] = biological target: T1, Human full-length (1–192) wild-type BAX; assay: FP; 0.5 uM EO (eltrombopag)

T1 sequence (Q07812 whole entry): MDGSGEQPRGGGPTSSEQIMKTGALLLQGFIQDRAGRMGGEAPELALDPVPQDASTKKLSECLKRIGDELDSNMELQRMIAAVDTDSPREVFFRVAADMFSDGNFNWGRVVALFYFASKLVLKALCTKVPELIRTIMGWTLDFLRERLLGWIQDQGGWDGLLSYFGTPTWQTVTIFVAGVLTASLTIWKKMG

Kd [1]: 110 nM
Kd [2]: > 2000 nM
Kd [3]: 613 nM
B1: FITC-BIM–SAHB, fluorescently-labeled hydrocarbon-stapled BIM–BH3 peptide (peptide)
chain: {FITC-Ahx}-EIWIAQELR[S5]IGD[S5]FNAYYA-NH2
modifications: staple 10-14
SMILES: CC[C@H](C)[C@H](NC(=O)[C@H](Cc1c[nH]c2ccccc12)NC(=O)[C@@H](NC(=O)[C@H](CCC(=O)O)NC(=O)CCCCCNC(=S)Nc1ccc2c(c1)C(=O)OC21c2ccc(O)cc2Oc2cc(O)ccc21)[C@@H](C)CC)C(=O)N[C@@H](C)C(=O)N[C@@H](CCC(N)=O)C(=O)N[C@@H](CCC(=O)O)C(=O)N[C@@H](CC(C)C)C(=O)N[C@@H](CCCNC(=N)N)C(=O)N[C@@]1(C)CCCC=CCCC[C@@](C)(C(=O)N[C@@H](Cc2ccccc2)C(=O)N[C@@H](CC(N)=O)C(=O)N[C@@H](C)C(=O)N[C@@H](Cc2ccc(O)cc2)C(=O)N[C@@H](Cc2ccc(O)cc2)C(=O)N[C@@H](C)C(N)=O)NC(=O)[C@H](CC(=O)O)NC(=O)CNC(=O)[C@H]([C@@H](C)CC)NC1=O
